Here are results for one substance from PMC4733626.

This test addresses wild-type metallo-β-lactamase L1 (UniProt P52700). As to the kind of experiment: SEC.

The stoichiometry N is the number of molecules, sites or subunits per partner or assembly.

Take “spin-labeled T163C/K286C mutant of metallo-β-lactamase L1 (enzyme)”: the stoichiometry N is 4.
